In patent US20180155451A1 (published 2018):

T1: FcγRIIb (human, UniProt P31994 43-217)
T1 construct: extracellular domain; also called FcgRIIb; 2b
T1 sequence (looked up): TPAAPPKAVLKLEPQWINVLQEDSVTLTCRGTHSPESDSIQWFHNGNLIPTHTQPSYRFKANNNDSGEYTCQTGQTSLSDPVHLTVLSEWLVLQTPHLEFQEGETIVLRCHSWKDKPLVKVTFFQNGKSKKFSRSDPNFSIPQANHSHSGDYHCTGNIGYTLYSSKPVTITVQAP

B1: GpH7-A5/GpH7-B3 variant (E269_01G)/GpL16-k0 (antibody, human IgG1, kappa)
heavy 1: not shown
heavy 2: not shown
light: DIVMTQSPLSLPVTPGEPASISCQASESLVHSNRNTYLHWYLQKPGQSPQLLIYKVSNRFSGVPDRFSGSGSGTDFTLKISRVEAEDVGVYYCSQNTHVPPTFGQGTKVEIERTVAAPSVFIFPPSDEQLKSGTASVVCLLNNFYPREAKVQWKVDNALQSGNSQESVTEQDSKDSTYSLSSTLTLSKADYEKHKVYACEVTHQGLSSPVTKSFNRGEC
notes: IgG1 heterodimer, mutation in the GpH7-B3 chain only; also called He Ab
B2: GpH7-A5/GpH7-B3 variant (G236_02A)/GpL16-k0 (antibody, human IgG1, kappa)
heavy 1: not shown
heavy 2: not shown
light: B1 light
notes: as for B1
B3: GpH7-A5/GpH7-B3 variant (G236_16H)/GpL16-k0 (antibody, human IgG1, kappa)
heavy 1: not shown
heavy 2: not shown
light: B1 light
notes: as for B1
B4: GpH7-A5/GpH7-B3 variant (E269_02A)/GpL16-k0 (antibody, human IgG1, kappa)
heavy 1: not shown
heavy 2: not shown
light: B1 light
notes: as for B1
B5: GpH7-A5/GpH7-B3 variant (E269_04F)/GpL16-k0 (antibody, human IgG1, kappa)
heavy 1: not shown
heavy 2: not shown
light: B1 light
notes: as for B1
B6: GpH7-A5/GpH7-B3 variant (D265_10E)/GpL16-k0 (antibody, human IgG1, kappa)
heavy 1: not shown
heavy 2: not shown
light: B1 light
notes: as for B1
B7: GpH7-A5/GpH7-B3 variant (E269_20W)/GpL16-k0 (antibody, human IgG1, kappa)
heavy 1: not shown
heavy 2: not shown
light: B1 light
notes: as for B1
B8: GpH7-A5/GpH7-B3 variant (E269_13S)/GpL16-k0 (antibody, human IgG1, kappa)
heavy 1: not shown
heavy 2: not shown
light: B1 light
notes: as for B1
B9: GpH7-A5/GpH7-B3 variant (E269_19Q)/GpL16-k0 (antibody, human IgG1, kappa)
heavy 1: not shown
heavy 2: not shown
light: B1 light
notes: as for B1
B10: GpH7-A5/GpH7-B3 variant (G236_08L)/GpL16-k0 (antibody, human IgG1, kappa)
heavy 1: not shown
heavy 2: not shown
light: B1 light
notes: as for B1
B11: GpH7-A5/GpH7-B3 variant (G236_03V)/GpL16-k0 (antibody, human IgG1, kappa)
heavy 1: not shown
heavy 2: not shown
light: B1 light
notes: as for B1
B12: GpH7-A5/GpH7-B3 variant (G236_20W)/GpL16-k0 (antibody, human IgG1, kappa)
heavy 1: not shown
heavy 2: not shown
light: B1 light
notes: IgG1 heterodimer, G236W in the GpH7-B3 chain only; also called GpH7-A5/GpH7-B3-03-20W/GpL16-k0; He Ab
B13: GpH7-A5/GpH7-B3 variant (E269_16H)/GpL16-k0 (antibody, human IgG1, kappa)
heavy 1: not shown
heavy 2: not shown
light: B1 light
notes: as for B1
B14: GpH7-A5/GpH7-B3 variant (E269_18N)/GpL16-k0 (antibody, human IgG1, kappa)
heavy 1: not shown
heavy 2: not shown
light: B1 light
notes: as for B1
B15: GpH7-A5/GpH7-B3 variant (E269_06M)/GpL16-k0 (antibody, human IgG1, kappa)
heavy 1: not shown
heavy 2: not shown
light: B1 light
notes: as for B1
B16: GpH7-A5/GpH7-B3 variant (H268_06M)/GpL16-k0 (antibody, human IgG1, kappa)
heavy 1: not shown
heavy 2: not shown
light: B1 light
notes: as for B1
B17: GpH7-A5/GpH7-B3 variant (E269_07I)/GpL16-k0 (antibody, human IgG1, kappa)
heavy 1: not shown
heavy 2: not shown
light: B1 light
notes: as for B1
B18: GpH7-A5/GpH7-B3 variant (G236_04F)/GpL16-k0 (antibody, human IgG1, kappa)
heavy 1: not shown
heavy 2: not shown
light: B1 light
notes: as for B1
B19: GpH7-A5/GpH7-B3 variant (E269_05P)/GpL16-k0 (antibody, human IgG1, kappa)
heavy 1: not shown
heavy 2: not shown
light: B1 light
notes: as for B1
B20: GpH7-A5/GpH7-B3 variant (G236_19Q)/GpL16-k0 (antibody, human IgG1, kappa)
heavy 1: not shown
heavy 2: not shown
light: B1 light
notes: as for B1
B21: GpH7-A5/GpH7-B3 variant (H268_07I)/GpL16-k0 (antibody, human IgG1, kappa)
heavy 1: not shown
heavy 2: not shown
light: B1 light
notes: as for B1

These binders were tested against T2, FcγRIa (human, UniProt P12314 16-292) (assay: SPR, captured antibody; relative to GpH7-A5/GpH7-B3/GpL16-k0).
T2 construct: extracellular domain; also called FcgRI; 1a
T2 sequence (P12314 16-292): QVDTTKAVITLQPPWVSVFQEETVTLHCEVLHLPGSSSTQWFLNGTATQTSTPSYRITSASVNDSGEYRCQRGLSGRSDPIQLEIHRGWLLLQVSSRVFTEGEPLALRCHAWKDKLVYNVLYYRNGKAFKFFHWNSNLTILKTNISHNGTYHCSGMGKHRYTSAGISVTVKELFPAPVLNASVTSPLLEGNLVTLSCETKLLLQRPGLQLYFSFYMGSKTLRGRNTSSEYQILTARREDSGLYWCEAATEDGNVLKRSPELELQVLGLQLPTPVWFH

He/Con_1a	Binder
104 relative, HeCon Ab = 100	B1
100 relative, HeCon Ab = 100	B2
83.5 relative, HeCon Ab = 100	B3
104 relative, HeCon Ab = 100	B4
103 relative, HeCon Ab = 100	B5
101 relative, HeCon Ab = 100	B6
105 relative, HeCon Ab = 100	B7
103 relative, HeCon Ab = 100	B8
105 relative, HeCon Ab = 100	B9
79.6 relative, HeCon Ab = 100	B10
89.9 relative, HeCon Ab = 100	B11
105 relative, HeCon Ab = 100	B12
106 relative, HeCon Ab = 100	B13
102 relative, HeCon Ab = 100	B14
104 relative, HeCon Ab = 100	B15
105 relative, HeCon Ab = 100	B16
103 relative, HeCon Ab = 100	B17
96.4 relative, HeCon Ab = 100	B18
102 relative, HeCon Ab = 100	B19
92.1 relative, HeCon Ab = 100	B20
108 relative, HeCon Ab = 100	B21

These binders were tested against T1, FcγRIIb in the same assay as above.

He/Con_2b	Binder
51.5 relative, HeCon Ab = 100	B1
96.5 relative, HeCon Ab = 100	B2
27.9 relative, HeCon Ab = 100	B3
49.9 relative, HeCon Ab = 100	B4
45 relative, HeCon Ab = 100	B5
38.2 relative, HeCon Ab = 100	B6
42.5 relative, HeCon Ab = 100	B7
47.8 relative, HeCon Ab = 100	B8
44.3 relative, HeCon Ab = 100	B9
26.8 relative, HeCon Ab = 100	B10
35.3 relative, HeCon Ab = 100	B11
58.2 relative, HeCon Ab = 100	B12
38.5 relative, HeCon Ab = 100	B13
44.8 relative, HeCon Ab = 100	B14
46.7 relative, HeCon Ab = 100	B15
65.7 relative, HeCon Ab = 100	B16
43.9 relative, HeCon Ab = 100	B17
39.3 relative, HeCon Ab = 100	B18
52.6 relative, HeCon Ab = 100	B19
46.6 relative, HeCon Ab = 100	B20
88.9 relative, HeCon Ab = 100	B21
